Data taken from US20150320848A1.

How the values were obtained:
Test in all cases: REVEAL MHC-peptide binding assay; score relative to positive control
HLA-DR4 = biological target: HLA-DR4
HLA-DR5 = biological target: HLA-DR5
HLA-DR1 = biological target: HLA-DR1
HLA-DR7 = biological target: HLA-DR7
HLA-DR2 = biological target: HLA-DR2

binding score (% compared to the positive control) (HLA-DR4) [%]	binding score (% compared to the positive control) (HLA-DR5) [%]	binding score (% compared to the positive control) (HLA-DR1) [%]	binding score (% compared to the positive control) (HLA-DR7) [%]	binding score (% compared to the positive control) (HLA-DR2) [%]	Binder
> 15	> 15	–	–	–	FEGQFSINKVPGNFHVS [ERGIC1-001]
> 15	–	> 15	> 15	> 15	GNQLFRINEANQLMQ [GALNT7-001]
